Reference: US20260275304A1, “METHODS AND COMPOSITIONS FOR GLYPHOSATE TOLERANCE IN PLANTS” (Monsanto Technology LLC, priority 2023, published 2026)
Positions count from the first letter of the chain named. Numbers in names are those of the source.

Columns and labels:
[1] = test system: wild-type S. cerevisiae BY4741; assay: Growth of wild-type yeast in glyphosate; format: cell-based, Saccharomyces cerevisiae; settings: 5 mM and 10 mM glyphosate
Source text: Previous research has primarily focused on E. coli as a chassis for selecting improved EPSP synthases. The present example details the development of S. cerevisiae as a model eukaryotic system for glyphosate resistance, thus requiring synthetically addicting this cell to the expression and activity of EPSPS in an effort to create a growth-based selection scheme. Yeast have previously been reported to be resistant to glyphosate.

transgenic maize plants [2] = assay: Greenhouse glyphosate spray test on hybrid (hemizygous) transgenic maize; format: in vivo, Zea mays
Method: To further evaluate the performance of EPSPS variants for glyphosate tolerance, transgenic maize plants comprising a single copy of the transgene encoding the EPSPS variants TIPS-P126S-M217L-K296R or TIPS-P126S-K296R were grown to maturity. Homozygous transgenic plants were crossed with an inbred line to produce hybrid seeds.
Plants from the hybrid seeds (hemizygous for the transgenes) of two independent transformation events for each of the two variants were grown in the greenhouse for glyphosate spray test. Roundup® PowerMax3, a commercial formulation of glyphosate, was applied at the third leaf stage at two rates: 1120 gram/hectare (1× the field rate) and 2240 gram/hectare (2× the field rate). The controls included an untreated untransformed control without glyphosate treatment, an untransformed control sprayed with glyphosate, and a TIPS positive control both sprayed with glyphosate. Glyphosate herbicide injury (plant stunting, chlorosis, necrosis, malformation, and death) was assessed by visual inspection of the plants 18 days after herbicide treatment. Herbicide injury rate was presented on a scale of 0 to 100 with “0” being no visible crop injury and “100” being complete crop injury or death.

[3] = test system: S. cerevisiae strain sKR-024; assay: Growth of synthetic yeast strain sKR-024 expressing EPSPS variants with or without glyphosate; format: cell-based, Saccharomyces cerevisiae; settings: for glyphosate tolerance in synthetic yeast host: mutants isolated from directed evolution
Method: EPSPS variants were re-cloned into a clean p416-Core1p backbone and transformed into strain sKR-024 as described above. Colonies were then picked in triplicate into YSC-Ura-Leu and outgrown for 2 days at 30° C. Cultures were then diluted back to OD 0.001 in yeast minimal media (YMM) containing varying amounts of glyphosate as indicated. Growth rate measurements were then obtained using an Infinite M200 PRO microplate reader (Tecan, Männedorf, Switzerland) with incubation at 30° C. for 72-120 hours depending on growth rate of selected variants.
To determine if this system could further corroborate observations from previous literature, the well-studied EPSPS mutants T102I and P106S, and the combined double mutant TIPS (T102I-P106S) were generated and complemented into this yeast system. These mutations were reported to result in varying degrees of glyphosate resistance.
Having established low copy number and weak promoter expression of EPSPS variants, it was sought to recharacterize phenotypes under field conditions that are used in planta. […] It has been reported previously that under standard glyphosate foliar application, 0.3 mM or more of glyphosate (gly) can accumulate in a plant's root nodules and meristems. […] These trends support reported literature of mutants P106S and TIPS grown in various plant hosts. As a result, the present synthetic yeast model system closely resembles in planta observations and thus can be used to select for dual-trait EPSPS variants aimed at both enzymatic efficiency and glyphosate resistance.
Select mutants isolated from the final directed evolution campaign with the improved selection strategy were further evaluated in assorted glyphosate concentrations to determine growth characteristics. Mutants isolated from an EPSPS background were evaluated in media containing 0 mM and 0.25 mM glyphosate with the latter being the concentration at which wild-type EPSPS cannot grow after 100 hours. […] The non-glyphosate mono selection highlighted in blue represents mutations resulting from 5 subcultures in 0 mM glyphosate. The low glyphosate dual selection highlighted in light green represents mutants resulting from an additional subculture into 0.5 mM glyphosate. Lastly, the high glyphosate dual selection highlighted in dark green represent mutations isolated after subcultures in increasing levels of glyphosate, up to 10 mM.

transgenic maize plants [4] = assay: Maize transformation with glyphosate selection, plantlet recovery and quality checks; format: in vivo, Zea mays; settings: for Number of young plants passing quality control checks: in vivo; for Number of plantlets generated: under glyphosate selection, same amount of starting material
Source text: Maize was used as a model system to test the functionality of the EPSPS variants because of detailed previous characterization of glyphosate tolerance in maize and a suitable transgenic plant generation protocol that relies on glyphosate. Plant transformation vectors were generated in which the native maize EPSPS sequence was used, which includes the native gene promoter elements, the native introns and exons and the native 3′ untranslated region and introduced mutations that corresponded to each of the selected amino acid changes. The native sequence was used to mimic as closely as possible how the selected EPSPS variants would perform if the variants were introduced directly in the genome without the help of strong expression elements. The following variants were selected for testing in a transgenic maize system: TIPS (as a control); TIPS-P126S-M217L-K296R; TIPS-P126S-K296R; T102I-P126S-K296R (where only the T102I change is present); P106S-P126S-K296R (where only the P106S change is present); and P126S-K296R (where neither of the TIPS changes are present).
Transgenic maize plants that expressed each of the six EPSPS variants were generated to determine if the variants conferred glyphosate tolerance to plants. The full DNA sequence encoding TIPS EPSPS (SEQ ID NO:1) was cloned from maize genomic DNA. In this sequence, the promoter and 5′ UTR are nucleotides 1:2556; the chloroplast transit peptide sequence is nucleotides 2557:2742; EXON 1 is nucleotides 2743:2856; INTRON 1 is nucleotides 2857:3384; EXON 2 is nucleotides 3385:3626; INTRON 2 is nucleotides 3627:3725; EXON 3 is nucleotides 3726:3879; INTRON 3 is nucleotides 3880:4152; EXON 4 is nucleotides 4153:4367; INTRON 4 is nucleotides 4368:4877; EXON 5 is nucleotides 4878:4995; INTRON 5 is nucleotides 4996:5155; EXON 6 is nucleotides 5156:5366; INTRON 6 is nucleotides 5367:5446; EXON 7 is nucleotides 5447:5508; INTRON 7 is nucleotides 5509:5617; EXON 8 is nucleotides 5618:5836; and the 3′ UTR is nucleotides 5837:6368. Mutations were then introduced into the EPSPS coding sequence in order to produce each of the six EPSPS variants to be tested. These mutated full genomic DNA sequences were then each cloned as a single expression cassette into plant transformation vectors.
Agrobacterium tumefaciens-mediated plant transformation was performed using methods known in the art. Glyphosate selection was used to select for transgenic events containing the transgene of interest and further screened for only those EPSPS variants that provided effective glyphosate tolerance in a plant cell. While all six EPSPS variants began the transformation process with the same amount of starting maize cellular material, there were differences in the number of small plantlets recovered that were capable of being transplanted to greenhouse soil media (Table 4). Transgenic events were further analyzed to determine transgene copy number. Healthy events with single copy of the transgene of interest were grown in the greenhouse soil media. Only three of the six EPSPS variants had more than one plant surviving. Up to twenty-five of these developing R0 plants were transplanted to larger pots and allowed to grow to maturity for seed collection in the greenhouse.

Molecule: O=C(O)CNCP(=O)(O)O [glyphosate, N-phosphonomethylglycine]
- growth inhibition [1]: slight growth inhibition

B1: TIPS-P126S-M217L-K296R: maize EPSPS variant, SEQ ID NO:10 (protein)
chain: AGAEEIVLQPIKEISGTVKLPGSKSLSNRILLLAALSEGTTVVDNLLNSEDVHYMLGALRTLGLSVEADKAAKRAVVVGCGGKFPVEDSKEEVQLFLGNAGIAMRSLTAAVTAAGGNATYVLDGVSRMRERPIGDLVVGLKQLGADVDCFLGTDCPPVRVNGIGGLPGGKVKLSGSISSQYLSALLMAAPLALGDVEIEIIDKLISIPYVEMTLRLLERFGVKAEHSDSWDRFYIKGGQKYKSPKNAYVEGDASSASYFLAGAAITGGTVTVEGCGTTSLQGDVKFAEVLEMMGARVTWTETSVTVTGPPREPFGRKHLKAIDVNMNKMPDVAMTLAVVALFADGPTAIRDVASWRVKETERMVAIRTELTKLGASVEEGPDYCIITPPEKLNVTAIDTYDDHRMAMAFSLAACAEVPVAIRDPGCTRKTFPDYFDVLSTFVKN
modifications: Zea mays
- tolerance to glyphosate (transgenic maize plants [2]; 2× field rate): full tolerance
- Average Injury At 1120 g/ha (transgenic maize plants [2]; Roundup PowerMax3, 1× field rate, 18 days after treatment, scale of 0 to 100): 0
- Average Injury At 2240 g/ha (transgenic maize plants [2]; Roundup PowerMax3, 2× field rate, 18 days after treatment, scale of 0 to 100): 0
- tolerance to glyphosate (transgenic maize plants [2]; equivalent 1× field dose): excellent tolerance
- growth in yeast minimal media without glyphosate ([3]; 0 mM glyphosate): high growth in non-glyphosate
- glyphosate tolerance in synthetic yeast host [3]: high glyphosate tolerance
- glyphosate tolerance in synthetic yeast host ([3]; listed as TIPS P126S/M217L/K296R): high glyphosate tolerance (even higher than TIPS)
- Number of young plants passing quality control checks (transgenic maize plants [4]): 13
- Number of plantlets generated (transgenic maize plants [4]): 92

B2: P126S-K296R: maize EPSPS variant, SEQ ID NO:14 (protein)
chain: B1 chain with I102T, S106P, L217M
modifications: Zea mays
- Number of young plants passing quality control checks (transgenic maize plants [4]): 1
- Number of plantlets generated (transgenic maize plants [4]): 11
